This experiment addresses Recombinant pseudopilin domain of Naegleria gruberi GspG1 (NgGspG1) lacking the N-terminal hydrophobic part (Naegleria gruberi). Nature of the experiment: MST; Monolith NT.115; 10 nM protein labelled with Red-NHS dye NT-647, unlabelled protein titrated to 50 uM; 50 mM HEPES, 50 mM NaCl.

What is called Kd is the equilibrium constant for the complex coming apart.

“Recombinant pseudopilin domain of Naegleria gruberi GspG1 (NgGspG1) lacking the N-terminal hydrophobic part (domain or fragment)”: the Kd was 0.216 µM.

These data come from article PMC8134430.
